To fix the notation:
B1: Mutation 1-18 (antibody)
heavy: EVQMVESGGGLLKPGGSLKLSCAASGFTYSNYAMSWVRQTPEKRLEWVATISSGGSYSFYPDSVKGRFTISRDNAKNTLYLQMLSLRSEDTAMYYCARRDNYPGSSFMDYWGQGSSVTVSSAKTTPPSVYPLAPGSAAQTNSMVTLGCLVKGYFPEPVTVTWNSGSLSSGVHTFPAVLQSDLYTLSSSVTVPSSTWPSQTVTCNVAHPASSTKVDKKIVPRDCGCKPCICTVPEVSSVFIFPPKPKDVLTITLTPKVTCVVVDISKDDPEVQFSWFVDDVEVHTAQTKPREEQFNSTFRSVSELPIMHQDWLNGKEFKCRVNSAAFPAPIEKTISKTKGRPKAPQVYTIPPPKEQMAKDKVSLTCMITNFFPEDITVEWQWNGQPAENYKNTQPIMDTDGSYFVYSKLNVQKSNWEAGNTFTCSVLHEGLHNHHTEKSLSHSPG
light: DIQMTQTSSSLSASLGDRVTISCRASQEITNYLNWYQQKPDGTIKLLIYYTSRIHSGVSSRFSGSGSGTDYSLTISNLEQEDIATYFCQQGNTLPLTFDTGTKLELKRADAAPTVSIFPPSSEQLTSGGASVVCFLNNFYPKDINVKWKIDGSERQNGVLNSWTDQDSKDSTYSMSSTLTLTKDEYERHNSYTCEATHKTSTSPIVKSFNRNEC
notes: assembled FR/CDR/constant
B2: Mutation 1-25 (antibody)
heavy: EVQMVESGGGLLKPGGSLKLSCAASGFTFSNYAMSWVRQTPEKRLEWVATISSGGSYSFYPDSVKGRFTISRDNAKNTLYLQMLSLRSEDTAMYYCARRDNYFGSSFMDYWGQGSSVTVSSAKTTPPSVYPLAPGSAAQTNSMVTLGCLVKGYFPEPVTVTWNSGSLSSGVHTFPAVLQSDLYTLSSSVTVPSSTWPSQTVTCNVAHPASSTKVDKKIVPRDCGCKPCICTVPEVSSVFIFPPKPKDVLTITLTPKVTCVVVDISKDDPEVQFSWFVDDVEVHTAQTKPREEQFNSTFRSVSELPIMHQDWLNGKEFKCRVNSAAFPAPIEKTISKTKGRPKAPQVYTIPPPKEQMAKDKVSLTCMITNFFPEDITVEWQWNGQPAENYKNTQPIMDTDGSYFVYSKLNVQKSNWEAGNTFTCSVLHEGLHNHHTEKSLSHSPG
light: DIQMTQTSSSLSASLGDRVTISCRASQDITNYLNWYQQKPDGTIKLLIYYTSRLHSGVSSRFSGSGSGTDYSLTISNLEQEDIATYFCQQGNTLPLTFDTGTKLELKRADAAPTVSIFPPSSEQLTSGGASVVCFLNNFYPKDINVKWKIDGSERQNGVLNSWTDQDSKDSTYSMSSTLTLTKDEYERHNSYTCEATHKTSTSPIVKSFNRNEC
notes: assembled FR/CDR/constant
B3: Mutation 1-24 (antibody)
heavy: EVQMVESGGGLLKPGGSLKLSCAASGFTYSNYAMSWVRQTPEKRLEWVATISSGGSYSYYPDSVKGRFTISRDNAKNTLYLQMLSLRSEDTAMYYCARRDNYFGSTFMDYWGQGSSVTVSSAKTTPPSVYPLAPGSAAQTNSMVTLGCLVKGYFPEPVTVTWNSGSLSSGVHTFPAVLQSDLYTLSSSVTVPSSTWPSQTVTCNVAHPASSTKVDKKIVPRDCGCKPCICTVPEVSSVFIFPPKPKDVLTITLTPKVTCVVVDISKDDPEVQFSWFVDDVEVHTAQTKPREEQFNSTFRSVSELPIMHQDWLNGKEFKCRVNSAAFPAPIEKTISKTKGRPKAPQVYTIPPPKEQMAKDKVSLTCMITNFFPEDITVEWQWNGQPAENYKNTQPIMDTDGSYFVYSKLNVQKSNWEAGNTFTCSVLHEGLHNHHTEKSLSHSPG
light: DIQMTQTSSSLSASLGDRVTISCRASQEITNYLNWYQQKPDGTIKLLIYYTSRIHSGVSSRFSGSGSGTDYSLTISNLEQEDIATYFCQQGHTIPLTFDTGTKLELKRADAAPTVSIFPPSSEQLTSGGASVVCFLNNFYPKDINVKWKIDGSERQNGVLNSWTDQDSKDSTYSMSSTLTLTKDEYERHNSYTCEATHKTSTSPIVKSFNRNEC
notes: assembled FR/CDR/constant
B4: Mutation 1-22 (antibody)
heavy: EVQMVESGGGLLKPGGSLKLSCAASGFTYSNYAMSWVRQTPEKRLEWVATISSGGSYSFYPDSVKGRFTISRDNAKNTLYLQMLSLRSEDTAMYYCARRDNYYGSSFMDYWGQGSSVTVSSAKTTPPSVYPLAPGSAAQTNSMVTLGCLVKGYFPEPVTVTWNSGSLSSGVHTFPAVLQSDLYTLSSSVTVPSSTWPSQTVTCNVAHPASSTKVDKKIVPRDCGCKPCICTVPEVSSVFIFPPKPKDVLTITLTPKVTCVVVDISKDDPEVQFSWFVDDVEVHTAQTKPREEQFNSTFRSVSELPIMHQDWLNGKEFKCRVNSAAFPAPIEKTISKTKGRPKAPQVYTIPPPKEQMAKDKVSLTCMITNFFPEDITVEWQWNGQPAENYKNTQPIMDTDGSYFVYSKLNVQKSNWEAGNTFTCSVLHEGLHNHHTEKSLSHSPG
light: DIQMTQTSSSLSASLGDRVTISCRASQDITNYLNWYQQKPDGTIKLLIYYTSRIHSGVSSRFSGSGSGTDYSLTISNLEQEDIATYFCQQGHTIPLTFDTGTKLELKRADAAPTVSIFPPSSEQLTSGGASVVCFLNNFYPKDINVKWKIDGSERQNGVLNSWTDQDSKDSTYSMSSTLTLTKDEYERHNSYTCEATHKTSTSPIVKSFNRNEC
notes: assembled FR/CDR/constant
B5: Mutation 1-20 (antibody)
heavy: EVQMVESGGGLLKPGGSLKLSCAASGFTYSNYAMSWVRQTPEKRLEWVATISSGGSYSYYPDSVKGRFTISRDNAKNTLYLQMLSLRSEDTAMYYCARRDNYFGSSFMDYWGQGSSVTVSSAKTTPPSVYPLAPGSAAQTNSMVTLGCLVKGYFPEPVTVTWNSGSLSSGVHTFPAVLQSDLYTLSSSVTVPSSTWPSQTVTCNVAHPASSTKVDKKIVPRDCGCKPCICTVPEVSSVFIFPPKPKDVLTITLTPKVTCVVVDISKDDPEVQFSWFVDDVEVHTAQTKPREEQFNSTFRSVSELPIMHQDWLNGKEFKCRVNSAAFPAPIEKTISKTKGRPKAPQVYTIPPPKEQMAKDKVSLTCMITNFFPEDITVEWQWNGQPAENYKNTQPIMDTDGSYFVYSKLNVQKSNWEAGNTFTCSVLHEGLHNHHTEKSLSHSPG
light: DIQMTQTSSSLSASLGDRVTISCRASQDITNYLNWYQQKPDGTIKLLIYYTSRLHSGVSSRFSGSGSGTDYSLTISNLEQEDIATYFCQQGNTLPLTFDTGTKLELKRADAAPTVSIFPPSSEQLTSGGASVVCFLNNFYPKDINVKWKIDGSERQNGVLNSWTDQDSKDSTYSMSSTLTLTKDEYERHNSYTCEATHKTSTSPIVKSFNRNEC
notes: assembled FR/CDR/constant
B6: Mutation 1-23 (antibody)
heavy: EVQMVESGGGLLKPGGSLKLSCAASGFTFSNYAMSWVRQTPEKRLEWVATISSGGSYSYYPDSVKGRFTISRDNAKNTLYLQMLSLRSEDTAMYYCARRDNYPGSTFMDYWGQGSSVTVSSAKTTPPSVYPLAPGSAAQTNSMVTLGCLVKGYFPEPVTVTWNSGSLSSGVHTFPAVLQSDLYTLSSSVTVPSSTWPSQTVTCNVAHPASSTKVDKKIVPRDCGCKPCICTVPEVSSVFIFPPKPKDVLTITLTPKVTCVVVDISKDDPEVQFSWFVDDVEVHTAQTKPREEQFNSTFRSVSELPIMHQDWLNGKEFKCRVNSAAFPAPIEKTISKTKGRPKAPQVYTIPPPKEQMAKDKVSLTCMITNFFPEDITVEWQWNGQPAENYKNTQPIMDTDGSYFVYSKLNVQKSNWEAGNTFTCSVLHEGLHNHHTEKSLSHSPG
light: DIQMTQTSSSLSASLGDRVTISCRASQEITNYLNWYQQKPDGTIKLLIYYTSRIHSGVSSRFSGSGSGTDYSLTISNLEQEDIATYFCQQGHTIPLTFDTGTKLELKRADAAPTVSIFPPSSEQLTSGGASVVCFLNNFYPKDINVKWKIDGSERQNGVLNSWTDQDSKDSTYSMSSTLTLTKDEYERHNSYTCEATHKTSTSPIVKSFNRNEC
notes: assembled FR/CDR/constant
B7: Mutation 1-19 (antibody)
heavy: EVQMVESGGGLLKPGGSLKLSCAASGFTFSNYAMSWVRQTPEKRLEWVATISSGGSYSYYPDSVKGRFTISRDNAKNTLYLQMLSLRSEDTAMYYCARRDNYFGSTFMDYWGQGSSVTVSSAKTTPPSVYPLAPGSAAQTNSMVTLGCLVKGYFPEPVTVTWNSGSLSSGVHTFPAVLQSDLYTLSSSVTVPSSTWPSQTVTCNVAHPASSTKVDKKIVPRDCGCKPCICTVPEVSSVFIFPPKPKDVLTITLTPKVTCVVVDISKDDPEVQFSWFVDDVEVHTAQTKPREEQFNSTFRSVSELPIMHQDWLNGKEFKCRVNSAAFPAPIEKTISKTKGRPKAPQVYTIPPPKEQMAKDKVSLTCMITNFFPEDITVEWQWNGQPAENYKNTQPIMDTDGSYFVYSKLNVQKSNWEAGNTFTCSVLHEGLHNHHTEKSLSHSPG
light: DIQMTQTSSSLSASLGDRVTISCRASQEITNYLNWYQQKPDGTIKLLIYYTSRLHSGVSSRFSGSGSGTDYSLTISNLEQEDIATYFCQQGHTLPLTFDTGTKLELKRADAAPTVSIFPPSSEQLTSGGASVVCFLNNFYPKDINVKWKIDGSERQNGVLNSWTDQDSKDSTYSMSSTLTLTKDEYERHNSYTCEATHKTSTSPIVKSFNRNEC
notes: assembled FR/CDR/constant
B8: Mutation 1-21 (antibody)
heavy: EVQMVESGGGLLKPGGSLKLSCAASGFTFSNYAMSWVRQTPEKRLEWVATISSGGSYSFYPDSVKGRFTISRDNAKNTLYLQMLSLRSEDTAMYYCARRDNYYGSTFMDYWGQGSSVTVSSAKTTPPSVYPLAPGSAAQTNSMVTLGCLVKGYFPEPVTVTWNSGSLSSGVHTFPAVLQSDLYTLSSSVTVPSSTWPSQTVTCNVAHPASSTKVDKKIVPRDCGCKPCICTVPEVSSVFIFPPKPKDVLTITLTPKVTCVVVDISKDDPEVQFSWFVDDVEVHTAQTKPREEQFNSTFRSVSELPIMHQDWLNGKEFKCRVNSAAFPAPIEKTISKTKGRPKAPQVYTIPPPKEQMAKDKVSLTCMITNFFPEDITVEWQWNGQPAENYKNTQPIMDTDGSYFVYSKLNVQKSNWEAGNTFTCSVLHEGLHNHHTEKSLSHSPG
light: DIQMTQTSSSLSASLGDRVTISCRASQDITNYLNWYQQKPDGTIKLLIYYTSRIHSGVSSRFSGSGSGTDYSLTISNLEQEDIATYFCQQGHTLPLTFDTGTKLELKRADAAPTVSIFPPSSEQLTSGGASVVCFLNNFYPKDINVKWKIDGSERQNGVLNSWTDQDSKDSTYSMSSTLTLTKDEYERHNSYTCEATHKTSTSPIVKSFNRNEC
notes: assembled FR/CDR/constant

T1 sequence (P19429 whole entry): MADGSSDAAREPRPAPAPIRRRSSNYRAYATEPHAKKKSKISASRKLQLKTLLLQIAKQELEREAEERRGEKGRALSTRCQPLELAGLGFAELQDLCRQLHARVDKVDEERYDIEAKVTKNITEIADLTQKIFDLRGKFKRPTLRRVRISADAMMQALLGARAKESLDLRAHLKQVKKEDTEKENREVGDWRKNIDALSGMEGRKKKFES

This experiment has as its target T1, CTNI quality control recombinant antigen (human, UniProt P19429 1-210, limits assumed).
T1 construct: Recombinant antigen produced by the applicant; also called CTNI quality control recombinant protein (antigen produced by the company); cardiac troponin I
Kind of experiment: BLI, antibody on AMC sensor, cTnI in solution. As to the method:
With an AMC sensor, the purified antibody was diluted to 10 μg/ml with PBST, and CTNI quality control recombinant protein (antigen produced by the company) was gradient diluted with PBST to 769.2 nmol/ml, 384.6 nmol/ml, 192.3 nmol/ml, 96.2 nmol/ml, 48.1 nmol/ml, 24 nmol/ml, 12 nmol/ml, and 0 nmol/ml.
(In general: BLI is a label-free optical method that tracks binding on a fibre tip over time.)
In general, Kd refers to the equilibrium constant for the complex coming apart. What is called koff is the rate constant with which the complex falls apart. The term kon denotes a measure of how fast the partners come together. For B1, the Kd came out at 4.4 nM, the koff amounted to 0.000253 s⁻¹ and the kon was 57500 M⁻¹ s⁻¹.

Take B2: the Kd turned out to be 5.36 nM, the koff stood at 0.000364 s⁻¹ and the on-rate (kon) was 67900 M⁻¹ s⁻¹.

Regarding B3, the dissociation constant (Kd) came to 5.37 nM, the off-rate (koff) was 0.000248 s⁻¹ and the kon was determined as 46100 M⁻¹ s⁻¹.

On to B4, for which the Kd is 9.07 nM, the off-rate constant (koff) is 0.000312 s⁻¹ and the kon amounted to 34400 M⁻¹ s⁻¹.

On to B5, for which the Kd was 2.87 nM, the dissociation rate constant (koff) was determined as 0.000172 s⁻¹ and the on-rate constant (kon) is 59800 M⁻¹ s⁻¹.

With B6, the Kd is 4.31 nM, the koff amounted to 0.000336 s⁻¹ and the on-rate (kon) was 77900 M⁻¹ s⁻¹.

On to B7, for which the Kd stood at 8.19 nM, the koff worked out at 0.000772 s⁻¹ and the kon is 94300 M⁻¹ s⁻¹.

Turning to B8, the Kd was 9.55 nM, the koff was 0.000632 s⁻¹ and the on-rate constant (kon) amounted to 66200 M⁻¹ s⁻¹.
